{"source": "the nanobody polyreactivity screen of Harvey et al. (2022)"}
{"experiment": "yeast display, Sf9 membrane polyspecificity reagent, FACS + sequencing; frameworks hold sequencing errors", "summary_of_the_method": "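Genes from sorted yeast were amplified by colony PCR, read by MiSeq 2 × 250 sequencing and filtered on CDR length. These cells carried a synthetic nanobody library in Saccharomyces cerevisiae BJ5465 and were sorted by FACS into low and high (top ~1%) gates on anti-HA and streptavidin fluorescence. Polyreactivity is labelled according to the gate of origin.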"}
{"sequence": "QVQLVESGGGLVQAGGSLRLSCAASGRIFSGYAMGWDRQAPGKERELVAAISSTGGTYYADSVKGRFTISRDNAKNTVYLQMNSLKPEDTAVYYCAADTYGYQGSAGGHWGQGTQVTVSS", "polyreactivity (PSR sort gate)": "low polyreactivity"}
{"sequence": "QVQLVESGGGLVQAGGSLRLSCAASGRIFSGYAMGWYRQAPGKEMELVAAISNSGASTYYADSVKGRFTISRDNAKNTVYLQMNSLKPEDTAVYYCAASGRVYSSGYDYWGQGTQVTVSS", "polyreactivity (PSR sort gate)": "high polyreactivity"}
{"sequence": "QVQLVESGGGLVQAGGSLRLSCAASGRIFSGYAMGWYRQAPGKERELVAAITSGASTNYADSVKGRFTISRDNAKNTVYLQMNSLKPEDTAVYYCNKKRTADYDYWGQGTQVTVSS", "polyreactivity (PSR sort gate)": "low polyreactivity"}
{"sequence": "QVQLVESGGGLVQAGGSLRLSCAASGRIFSGYAMGWYRQAPGKESELVAAITSRSGSTYYADSVKARFTISRDNAKNTVYLQMNSLKPEDTAVYYCDAEYVRFYWYTSDYWGQGTQVTVSS", "polyreactivity (PSR sort gate)": "low polyreactivity"}
{"sequence": "QVQLVESGGGLVQAGGSLRLSCAASGRIFSHYAMGWYRQAPGKERELVAAITWSGGRTYYADSVKGRFTISRDNAKNTVYLQMNSLKPEDTAVYYSAADREARYPVEYGYWGQGTQVTVSS", "polyreactivity (PSR sort gate)": "low polyreactivity"}
{"sequence": "QVQLVESGGGLVQAGGSLRLSCAASGRIFSINVKGWYRHAPGKERELVAAISKRGGSTYYADSVKGRFTISRDNAKNTVYLQMNSLKPEDTAVYYCAARRHYTYGNGPSRGGQMDYWGQGTQVTVSS", "polyreactivity (PSR sort gate)": "high polyreactivity"}
{"sequence": "QVQLVESGGGLVQAGGSLRLSCAASGRIFSIYGMGWYRQAPGKERELVAVISGSVGITYYADSVKGRFTISRDNAKNTVYLQMNSLKPEDTAVYYSNAKVRRRKYDYWGQGTQVTVSS", "polyreactivity (PSR sort gate)": "high polyreactivity"}
{"sequence": "QVQLVESGGGLVQAGGSLRLSCAASGRIFSKNAMGWYRQAPGKERELVAAIDSSGDSTNYADSVKGRFTISRDNAKNTVYLQMNSLKTEDTAVYYCAATLGYRWSGFEYWGLGTQVTVSS", "polyreactivity (PSR sort gate)": "high polyreactivity"}
{"sequence": "QVQLVESGGGLVQAGGSLRLSCAASGRIFSKYAMGWYRQAPGKERELVASIRWRGDRTYYADSVKGRFTISRDNAKNTVYLQMNSLKTEDTAVYYCAADEPGYGVGYWTYPVVPYDYWGQGTQVTVSS", "polyreactivity (PSR sort gate)": "low polyreactivity"}
{"sequence": "QVQLVESGGGLVQAGGSLRLSCAASGRIFSLNAMGWYRQAPGKERELVAGIRKSGGSTYYADSVKGRFTISRDNAKNTVYLQMNSLKPEDTAVYYCAAQPALTYRFYYWGQGTQVTVSS", "polyreactivity (PSR sort gate)": "high polyreactivity"}
{"sequence": "QVQLVESGGGLVQAGGSLRLSCAASGRIFSLYAMGWYRPAPGKEMELVAAITGIGGSTYYADSVKGRFTISRDNAKNTVYLQMNSLKPDDTAVYYCAARYPATYPSMGYWGQGTQLTVSS", "polyreactivity (PSR sort gate)": "low polyreactivity"}
{"sequence": "QVQLVESGGGLVQAGGSLRLSCAASGRIFSLYAMGWYRPAPGKERELVAAITWRGGGTYYADSVKGRITISRDNAKNTVFLQMNSLKPEDTAVYYCAAEVKHIFYGYWGQGTQVTVSS", "polyreactivity (PSR sort gate)": "high polyreactivity"}
{"sequence": "QVQLVESGGGLVQAGGSLRLSCAASGRIFSLYAMGWYRQAPGKDRELVAAISRGGSTYYADSVKGRFTISRDNAKNTVYLQMNSLKPEDTAVSYCARRYWYPDAFYRYDYWGQGTQVTVSS", "polyreactivity (PSR sort gate)": "low polyreactivity"}
{"sequence": "QVQLVESGGGLVQAGGSLRLSCAASGRIFSNNAMGWYRQAPGKERELVAAITNSGGSTYYADSVKGRFTISRDNAKNTVYLQMNSLKPEDTAVYYCNARSKVAYYRHYYWGQGTQVTVSS", "polyreactivity (PSR sort gate)": "low polyreactivity"}
{"sequence": "QVQLVESGGGLVQAGGSLRLSCAASGRIFSPNAMGWSRQAPGKERELVAAITRGGSTNYADSVKGRFTISRDNAKYTVYLQMNSLKPEDTAVYFCAALLAKTISGRGYNSWGQGTQVTVSS", "polyreactivity (PSR sort gate)": "low polyreactivity"}
{"sequence": "QVQLVESGGGLVQAGGSLRLSCAASGRIFSPYAMGWYRQAPGKERELVARISWRGSRTYYADSVKGRFTISRDNAKNTVYLQMNSLKPEDTAVYYCNAVFYRKPLRRDYWVQGTQVTVSS", "polyreactivity (PSR sort gate)": "high polyreactivity"}
{"sequence": "QVQLVESGGGLVQAGGSLRLSCAASGRIFSQNTMGWYRQAPGKERELVATITTSDGSTSYADSVKGRFTISRDNAKNTVYLQMNSLKPEDTAVYYCNARLSKYEGYWVWQYDYWGQGTQVTVSS", "polyreactivity (PSR sort gate)": "low polyreactivity"}
{"sequence": "QVQLVESGGGLVQAGGSLRLSCAASGRIFSRNAMGWYRQAPGKDRELVAAISRSGTSTYYADSGKGRFTISRDNAKNTVYLQMNSLKPEDTAVYYCAADSWSRSVNYYYWGQGTQVTVSS", "polyreactivity (PSR sort gate)": "low polyreactivity"}
{"sequence": "QVQLVESGGGLVQAGGSLRLSCAASGRIFSRNAMGWYRQAPGKERELVAAISRSGTRTNYADSVKGRFTISRDNAKYTVYLQMNSLKPEDTAVYYCATAAFIVGSSRTYDYWGQGTQVTVSS", "polyreactivity (PSR sort gate)": "high polyreactivity"}
{"sequence": "QVQLVESGGGLVQAGGSLRLSCAASGRIFSRNAMGWYRQAPRKEREFVAAISRRGTSTYYADSVKGRFTISRDNAKNTVYLQMHSLKPEDTAVYYCNAGGSPWYKPVYYRALYDYWGQGTQVTVSS", "polyreactivity (PSR sort gate)": "high polyreactivity"}
{"sequence": "QVQLVESGGGLVQAGGSLRLSCAASGRIFSRNARGWYRQATGKERELVAAITARSGTTFYADSVKGRFTISRDNAKNTVYLQMNSLKPEDTAVYYCAADGSPSLLDYWGQGTQVTVSS", "polyreactivity (PSR sort gate)": "high polyreactivity"}
{"sequence": "QVQLVESGGGLVQAGGSLRLSCAASGRIFSRYAMGWYRQAPGKERELVAAINWSGGSTYYADSVKGRFTISRDNAKNTVYLQMNSLKPEDTAVYYCAADIYPLAIGAFRDDYWGQGTQVTVSS", "polyreactivity (PSR sort gate)": "low polyreactivity"}
{"sequence": "QVQLVESGGGLVQAGGSLRLSCAASGRIFSRYAMGWYRQAPGKERELVAAITSNGGSTYYADSVKGRFTISRDNAKNTVYLQMNSLKPEDTAVYYCAAKSYWLHYDYWGQGTQVTVSS", "polyreactivity (PSR sort gate)": "high polyreactivity"}
{"sequence": "QVQLVESGGGLVQAGGSLRLSCAASGRIFSRYAMGWYRQAPGKERELVASIRSGGSTYYADSVKGRFTIARDNAKNTVYVQMNSLKPEDTAVYYCAKGTFDLHYRKRYNYWGQGTQVTVSS", "polyreactivity (PSR sort gate)": "low polyreactivity"}
{"sequence": "QVQLVESGGGLVQAGGSLRLSCAASGRIFSRYTMGCYRQAPGKERELVAAISSRGGSTYYADSVKGRFTISRDNAKNTVYLQMNSLKPEDTAVYYCNTPSYSGSSPYDHWGQGTQVTVSS", "polyreactivity (PSR sort gate)": "high polyreactivity"}
{"sequence": "QVQLVESGGGLVQAGGSLRLSCAASGRIFSSYAMGWNRQAPGKERELVAAITDGDSTNYADSVKGRFTIARDNAKNTDYFQMNSLKPEDTAVYYCAVDILWYYPPGNYYYSSYDYWGQGTQVTVSS", "polyreactivity (PSR sort gate)": "low polyreactivity"}
{"sequence": "QVQLVESGGGLVQAGGSLRLSCAASGRIFSTNAMGWYRQAPGKEREFVAAISWIGGSTYYADSVKGRFTISRDNAKNTVYLQMNSLKPEDTAVYYCAAGVYDDYPWSYDIFNLYDYWGQGTQVTVSS", "polyreactivity (PSR sort gate)": "low polyreactivity"}
{"sequence": "QVQLVESGGGLVQAGGSLRLSCAASGRIFSVNGMGWYRQAPGKERELVAAITYNGGRTYYADSVKGRITISRDNAKNTVYLQMNSLKPEDTAVYYCAVESVRHPLDWYYYWGQGTQVTVSS", "polyreactivity (PSR sort gate)": "low polyreactivity"}
{"sequence": "QVQLVESGGGLVQAGGSLRLSCAASGRIFSVYAMGWYRQAPGKEREFVAAITKGGVGTYYADSVKGRFTISRDNAKNTVYLQMNSLKPEDTAVYYCAARHYYGADRYYSWGQGTLVTVSS", "polyreactivity (PSR sort gate)": "high polyreactivity"}
{"sequence": "QVQLVESGGGLVQAGGSLRLSCAASGRIFSVYAMGWYRQAPGKEREFVASISWRGGRTYYADSVKGRFTISRDNAKNTVYLQMNSLKPEDTAVYYCNAPQRYWPPYGYWGQGTQVTVSS", "polyreactivity (PSR sort gate)": "high polyreactivity"}
{"sequence": "QVQLVESGGGLVQAGGSLRLSCAASGRIFSVYAMGWYRQAPGKERELVAAITWTGGRTYYADSVKGRFTISRDNAKNTVYLQMNSLKPEDTAVYYCNKDWGRYRYDYWGQGTQVTVSS", "polyreactivity (PSR sort gate)": "high polyreactivity"}
{"sequence": "QVQLVESGGGLVQAGGSLRLSCAASGRIFSVYGMGWYRQAPGKDRELVAAISSSAGSTNYADSVKGRFTISRDNAKNTVYLQMNSLKPEDTAVYYCAAYYRRVVYYPTAYYIRKYDYWGQGTQVTVSS", "polyreactivity (PSR sort gate)": "high polyreactivity"}
{"sequence": "QVQLVESGGGLVQAGGSLRLSCAASGRIFSVYTMGWYRQAPGKERELVAGISRGGSTDYADSVKGRFTISRDNAKNTVYLQMNSLKPEDTAVYYCAATYTYRWYQFNFWGQGTQVTVSS", "polyreactivity (PSR sort gate)": "high polyreactivity"}
{"sequence": "QVQLVESGGGLVQAGGSLRLSCAASGRIFSWYTMGWYRQAPGKERELVAGITWSGGSTYYADSVKGRFTISRDNAKNTVYLQMNSLKPEDTAVYYCAAGGVSFGYYKYYYWGQGTQVTVSS", "polyreactivity (PSR sort gate)": "high polyreactivity"}
{"sequence": "QVQLVESGGGLVQAGGSLRLSCAASGRIFSWYTMGWYRQAPGKERELVAIISRSGGSTYYADSVKGRFTISRDNAKNTVYLQMNSLKPEDTAVYYCNARWSFSYTVWVDSYWGLDDYWGQGTQVTVSS", "polyreactivity (PSR sort gate)": "high polyreactivity"}
{"sequence": "QVQLVESGGGLVQAGGSLRLSCAASGRIFSYAMGWYRQAPGKERELVAGSTYYADSVKGRFTISRDNAKNTVYLQMNSLKPEDTAVYYCNVGGYGLRGDYWGQGTQVTVSS", "polyreactivity (PSR sort gate)": "low polyreactivity"}
{"sequence": "QVQLVESGGGLVQAGGSLRLSCAASGRIFSYNAMGLYRPAPVKERELFAAITFSGGGTYYADSVKGRFTISRDNAKNTVYLQMKSLKPEDTAVYYCNKVSYGYSTYGYWGQGTQVTVSS", "polyreactivity (PSR sort gate)": "low polyreactivity"}
{"sequence": "QVQLVESGGGLVQAGGSLRLSCAASGRIFSYNAMGWYRQAPGKEREFVAAIDWRAGSTYYADSVKGRFTISRDNAKKTVYLQMNSLKPEDTAVYYCAVEFGAYPFLYYYWGQGTQVTVSS", "polyreactivity (PSR sort gate)": "high polyreactivity"}
{"sequence": "QVQLVESGGGLVQAGGSLRLSCAASGRIFSYNAMGWYRQAPGKERELVAAISYGGGRTYYADSVKGRFTISRDNAKNTVYLQMNSLKPEDTAVYYCAASQYRSPYPYRDYYTPDYDYWGQGTQVTVSS", "polyreactivity (PSR sort gate)": "high polyreactivity"}
{"sequence": "QVQLVESGGGLVQAGGSLRLSCAASGRIFSYNAMGWYRQAPGKERELVAAISYGGGRTYYADSVKGRFTISRDNAKNTVYLQMNSLKPEDTAVYYCAATSSLGDFRYDYWRQGTQVTVSS", "polyreactivity (PSR sort gate)": "high polyreactivity"}
{"sequence": "QVQLVESGGGLVQAGGSLRLSCAASGRIFSYYAMGWYRQAPGKERELVAAINWSGSSTYYADSVKGRFTISRDNAKNTVYLQMNSLKPEDTAVYYCAAGVPKNGQAGYDYWGQGTQVTVSS", "polyreactivity (PSR sort gate)": "high polyreactivity"}
{"sequence": "QVQLVESGGGLVQAGGSLRLSCAASGRIFSYYAMGWYRQAPGKERELVAAISWNGGSTYYADSVKGRFTISRDNAKNTVYLQMKSLKPEDTAVYYCAAESYFNNWRNRYDYCGQGTQVTVSS", "polyreactivity (PSR sort gate)": "high polyreactivity"}
{"sequence": "QVQLVESGGGLVQAGGSLRLSCAASGRIFSYYAMGWYRQAPGKERELVAAISWNGGSTYYADSVKGRFTISRDNAKNTVYLQMNSLKPEDTAVYYCNRLGYRTGYERDYWGQGTQVTVSS", "polyreactivity (PSR sort gate)": "high polyreactivity"}
